From publication PMC4503265 (The Journal of biological chemistry, 2008)

B1: Myc-tagged wild-type glycine transporter 2 (Myc-GlyT2^WT) (natural protein, mouse, UniProt Q761V0 1-799, looked up)
chain: MDCSAPKEMNKQPANILEAAVPGHRDSPRAPRTSPEQDLPAEAPAATVQPPRVPRSASTGAQTFQSADARACEAQQSGVGFCNLSSPRAQATSAALRDLSEGHSAQANPPSGPAGAGNALHCKIPALRGPEEDANVSVGKGTLEHNNTPAVGWVNMSQSTVVLGTDGIASVLPGSVATTTIPEDEQGDENKARGNWSSKLDFILSMVGYAVGLGNVWRFPYLAFQNGGGAFLIPYLMMLALAGLPIFFLEVSLGQFASQGPVSVWKAIPALQGCGIAMLIISVLIAIYYNVIICYTLFYLFASFVSVLPWGSCNNPWNTPECKDKTKLLLDSCVIGDHPKIQIKNSTFCMTAYPNLTMVNFTSQTNKTFVSGSEEYFKYFVLKISAGIEYPGEIRWPLAFCLFLAWVIVYASLAKGIKSSGKVVYFTATFPYVVLVILLIRGVTLPGAGAGIWYFITPKWEKLTDATVWKDAATQIFFSLSAAWGGLITLSSYNKFHNNCYRDTLIVTCTNSATSIFAGFVIFSVIGFMANERKVNIENVADQGPGIAFVVYPEALTRLPLSPFWAIIFFLMLLTLGLDTMFATIETIVTSISDEFPKYLRTHKPVFTLGCCICFFIMGFPMITQGGIYMFQLVDTYAASYALVIIAIFELVGISYVYGLQRFCEDIEMMIGFKPNIFWKVCWAFVTPTILTFILCFSFYQWEPMTYGSYRYPNWSMVLGWLMLACSVIWIPIMFVIKMYLAPGRFIERLKLVCSPQPDWGPFLAQHRGERYKNMIDPLGTSSLGLKLPVKDLELGTQC
B2: GlyT2^T464C (no tag named) (natural protein, mouse, UniProt Q761V0 1-799, looked up)
chain: MDCSAPKEMNKQPANILEAAVPGHRDSPRAPRTSPEQDLPAEAPAATVQPPRVPRSASTGAQTFQSADARACEAQQSGVGFCNLSSPRAQATSAALRDLSEGHSAQANPPSGPAGAGNALHCKIPALRGPEEDANVSVGKGTLEHNNTPAVGWVNMSQSTVVLGTDGIASVLPGSVATTTIPEDEQGDENKARGNWSSKLDFILSMVGYAVGLGNVWRFPYLAFQNGGGAFLIPYLMMLALAGLPIFFLEVSLGQFASQGPVSVWKAIPALQGCGIAMLIISVLIAIYYNVIICYTLFYLFASFVSVLPWGSCNNPWNTPECKDKTKLLLDSCVIGDHPKIQIKNSTFCMTAYPNLTMVNFTSQTNKTFVSGSEEYFKYFVLKISAGIEYPGEIRWPLAFCLFLAWVIVYASLAKGIKSSGKVVYFTATFPYVVLVILLIRGVTLPGAGAGIWYFITPKWEKLCDATVWKDAATQIFFSLSAAWGGLITLSSYNKFHNNCYRDTLIVTCTNSATSIFAGFVIFSVIGFMANERKVNIENVADQGPGIAFVVYPEALTRLPLSPFWAIIFFLMLLTLGLDTMFATIETIVTSISDEFPKYLRTHKPVFTLGCCICFFIMGFPMITQGGIYMFQLVDTYAASYALVIIAIFELVGISYVYGLQRFCEDIEMMIGFKPNIFWKVCWAFVTPTILTFILCFSFYQWEPMTYGSYRYPNWSMVLGWLMLACSVIWIPIMFVIKMYLAPGRFIERLKLVCSPQPDWGPFLAQHRGERYKNMIDPLGTSSLGLKLPVKDLELGTQC
B3: His-GlyT2^T464C expressed in Xenopus laevis oocytes (natural protein, mouse, UniProt Q761V0 1-799, looked up)
chain: MDCSAPKEMNKQPANILEAAVPGHRDSPRAPRTSPEQDLPAEAPAATVQPPRVPRSASTGAQTFQSADARACEAQQSGVGFCNLSSPRAQATSAALRDLSEGHSAQANPPSGPAGAGNALHCKIPALRGPEEDANVSVGKGTLEHNNTPAVGWVNMSQSTVVLGTDGIASVLPGSVATTTIPEDEQGDENKARGNWSSKLDFILSMVGYAVGLGNVWRFPYLAFQNGGGAFLIPYLMMLALAGLPIFFLEVSLGQFASQGPVSVWKAIPALQGCGIAMLIISVLIAIYYNVIICYTLFYLFASFVSVLPWGSCNNPWNTPECKDKTKLLLDSCVIGDHPKIQIKNSTFCMTAYPNLTMVNFTSQTNKTFVSGSEEYFKYFVLKISAGIEYPGEIRWPLAFCLFLAWVIVYASLAKGIKSSGKVVYFTATFPYVVLVILLIRGVTLPGAGAGIWYFITPKWEKLCDATVWKDAATQIFFSLSAAWGGLITLSSYNKFHNNCYRDTLIVTCTNSATSIFAGFVIFSVIGFMANERKVNIENVADQGPGIAFVVYPEALTRLPLSPFWAIIFFLMLLTLGLDTMFATIETIVTSISDEFPKYLRTHKPVFTLGCCICFFIMGFPMITQGGIYMFQLVDTYAASYALVIIAIFELVGISYVYGLQRFCEDIEMMIGFKPNIFWKVCWAFVTPTILTFILCFSFYQWEPMTYGSYRYPNWSMVLGWLMLACSVIWIPIMFVIKMYLAPGRFIERLKLVCSPQPDWGPFLAQHRGERYKNMIDPLGTSSLGLKLPVKDLELGTQC
B4: His- or Myc-tagged GlyT2^T464C (natural protein, mouse, UniProt Q761V0 1-799, looked up)
chain: MDCSAPKEMNKQPANILEAAVPGHRDSPRAPRTSPEQDLPAEAPAATVQPPRVPRSASTGAQTFQSADARACEAQQSGVGFCNLSSPRAQATSAALRDLSEGHSAQANPPSGPAGAGNALHCKIPALRGPEEDANVSVGKGTLEHNNTPAVGWVNMSQSTVVLGTDGIASVLPGSVATTTIPEDEQGDENKARGNWSSKLDFILSMVGYAVGLGNVWRFPYLAFQNGGGAFLIPYLMMLALAGLPIFFLEVSLGQFASQGPVSVWKAIPALQGCGIAMLIISVLIAIYYNVIICYTLFYLFASFVSVLPWGSCNNPWNTPECKDKTKLLLDSCVIGDHPKIQIKNSTFCMTAYPNLTMVNFTSQTNKTFVSGSEEYFKYFVLKISAGIEYPGEIRWPLAFCLFLAWVIVYASLAKGIKSSGKVVYFTATFPYVVLVILLIRGVTLPGAGAGIWYFITPKWEKLCDATVWKDAATQIFFSLSAAWGGLITLSSYNKFHNNCYRDTLIVTCTNSATSIFAGFVIFSVIGFMANERKVNIENVADQGPGIAFVVYPEALTRLPLSPFWAIIFFLMLLTLGLDTMFATIETIVTSISDEFPKYLRTHKPVFTLGCCICFFIMGFPMITQGGIYMFQLVDTYAASYALVIIAIFELVGISYVYGLQRFCEDIEMMIGFKPNIFWKVCWAFVTPTILTFILCFSFYQWEPMTYGSYRYPNWSMVLGWLMLACSVIWIPIMFVIKMYLAPGRFIERLKLVCSPQPDWGPFLAQHRGERYKNMIDPLGTSSLGLKLPVKDLELGTQC
B5: wild-type dopamine transporter (DAT^WT), no tag named (natural protein, human, UniProt Q01959 1-620, looked up)
chain: MSKSKCSVGLMSSVVAPAKEPNAVGPKEVELILVKEQNGVQLTSSTLTNPRQSPVEAQDRETWGKKIDFLLSVIGFAVDLANVWRFPYLCYKNGGGAFLVPYLLFMVIAGMPLFYMELALGQFNREGAAGVWKICPILKGVGFTVILISLYVGFFYNVIIAWALHYLFSSFTTELPWIHCNNSWNSPNCSDAHPGDSSGDSSGLNDTFGTTPAAEYFERGVLHLHQSHGIDDLGPPRWQLTACLVLVIVLLYFSLWKGVKTSGKVVWITATMPYVVLTALLLRGVTLPGAIDGIRAYLSVDFYRLCEASVWIDAATQVCFSLGVGFGVLIAFSSYNKFTNNCYRDAIVTTSINSLTSFSSGFVVFSFLGYMAQKHSVPIGDVAKDGPGLIFIIYPEAIATLPLSSAWAVVFFIMLLTLGIDSAMGGMESVITGLIDEFQLLHRHRELFTLFIVLATFLLSLFCVTNGGIYVFTLLDHFAAGTSILFGVLIEAIGVAWFYGVGQFSDDIQQMTGQRPSLYWRLCWKLVSPCFLLFVVVVSIVTFRPPHYGAYIFPDWANALGWVIATSSMAMVPIYAAYKFCSLPGSFREKLAYAIAPEKDRELVDRGEVRQFTLRHWLKV
B6: His-tagged wild-type dopamine transporter (His-DAT^WT) (natural protein, human, UniProt Q01959 1-620, looked up)
chain: MSKSKCSVGLMSSVVAPAKEPNAVGPKEVELILVKEQNGVQLTSSTLTNPRQSPVEAQDRETWGKKIDFLLSVIGFAVDLANVWRFPYLCYKNGGGAFLVPYLLFMVIAGMPLFYMELALGQFNREGAAGVWKICPILKGVGFTVILISLYVGFFYNVIIAWALHYLFSSFTTELPWIHCNNSWNSPNCSDAHPGDSSGDSSGLNDTFGTTPAAEYFERGVLHLHQSHGIDDLGPPRWQLTACLVLVIVLLYFSLWKGVKTSGKVVWITATMPYVVLTALLLRGVTLPGAIDGIRAYLSVDFYRLCEASVWIDAATQVCFSLGVGFGVLIAFSSYNKFTNNCYRDAIVTTSINSLTSFSSGFVVFSFLGYMAQKHSVPIGDVAKDGPGLIFIIYPEAIATLPLSSAWAVVFFIMLLTLGIDSAMGGMESVITGLIDEFQLLHRHRELFTLFIVLATFLLSLFCVTNGGIYVFTLLDHFAAGTSILFGVLIEAIGVAWFYGVGQFSDDIQQMTGQRPSLYWRLCWKLVSPCFLLFVVVVSIVTFRPPHYGAYIFPDWANALGWVIATSSMAMVPIYAAYKFCSLPGSFREKLAYAIAPEKDRELVDRGEVRQFTLRHWLKV

What was measured:
[1] = biological target: the molecule itself; experiment: SDS-resistant band in nonreducing SDS-PAGE with Western blot
cross-linking [2] = biological target: the molecule itself; experiment: cross-linking
cross-linking [3] = biological target: the molecule itself; experiment: cross-linking; remark: listed apart in the source
pull-down = biological target: the molecule itself; experiment: pull-down

Protein | stoichiometry N (cross-linking [2]) | further results
B1 |  | stoichiometry N [1]: 2
B2 | 2 | 
B3 |  | stoichiometry N (cross-linking [3]): 2
B4 |  | stoichiometry N (pull-down): 2
B5 | 2 | 
B6 | 2 | 
